Results published in US20230002480A1.

Assays:
Assay in all cases: cell-based or functional assay
[1] = target: HIV-1 Env of pseudovirus CNE52 (HIV-1)
[2] = target: HIV-1 Env of pseudovirus X2131_C1_B5 (HIV-1)
[3] = target: HIV-1 Env of pseudovirus 249M B10 (HIV-1)
[4] = target: HIV-1 Env of pseudovirus CAP45.2.00.G3 (HIV-1)
[5] = target: HIV-1 Env of pseudovirus 1006_11_C3_1601 (HIV-1)
[6] = target: HIV-1 Env of pseudovirus 62357_14_D3_4589 (HIV-1)
[7] = target: HIV-1 Env of pseudovirus C3347.c11 (HIV-1)
[8] = target: HIV-1 Env of pseudovirus ZM135M.PL10a (HIV-1)
[9] = target: HIV-1 Env of pseudovirus 235-47 (HIV-1)
[10] = target: HIV-1 Env of pseudovirus CNE53 (HIV-1)
[11] = target: HIV-1 Env of pseudovirus CNE30 (HIV-1)
[12] = target: HIV-1 Env of pseudovirus C1080.c03 (HIV-1)
[13] = target: HIV-1 Env of pseudovirus TRJO4551.58 (HIV-1)
[14] = target: HIV-1 Env of pseudovirus 1012_11_TC21_3257 (HIV-1)
[15] = target: HIV-1 Env of pseudovirus T255-34 (HIV-1)
[16] = target: HIV-1 Env of pseudovirus BJOX009000.02.4 (HIV-1)
[17] = target: HIV-1 Env of pseudovirus 191955_A11 (HIV-1)
[18] = target: HIV-1 Env of pseudovirus Ce704809221_1B3 (HIV-1)
[19] = target: HIV-1 Env of pseudovirus Ce0393_C3 (HIV-1)
[20] = target: HIV-1 Env of pseudovirus X1632_S2_B10 (HIV-1)
[21] = target: HIV-1 Env of pseudovirus CAP210.2.00.E8 (HIV-1)
[22] = target: HIV-1 Env of pseudovirus SC05_8C11_2344 (HIV-1)
[23] = target: HIV-1 Env of pseudovirus 1056_10_TA11_1826 (HIV-1)
[24] = target: HIV-1 Env of pseudovirus CNE21 (HIV-1)
[25] = target: HIV-1 Env of pseudovirus T251-18 (HIV-1)
[26] = target: HIV-1 Env of pseudovirus R2184.c04 (HIV-1)
[27] = target: HIV-1 Env of pseudovirus TRO.11 (HIV-1)
[28] = target: HIV-1 Env of pseudovirus R1166.c01 (HIV-1)
[29] = target: HIV-1 Env of pseudovirus RHPA4259.7 (HIV-1)
[30] = target: HIV-1 Env of pseudovirus 6545.v4.c1 (HIV-1)
[31] = target: HIV-1 Env of pseudovirus 6244_13_B5_4576 (HIV-1)
[32] = target: HIV-1 Env of pseudovirus HIV-0013095-2.11 (HIV-1)
[33] = target: HIV-1 Env of pseudovirus 6540.v4.c1 (HIV-1)
[34] = target: HIV-1 Env of pseudovirus 3103.v3.c10 (HIV-1)
[35] = target: HIV-1 Env of pseudovirus ZM233M.PB6 (HIV-1)
[36] = target: HIV-1 Env of pseudovirus ZM214M.PL15 (HIV-1)
[37] = target: HIV-1 Env of pseudovirus Ce1176_A3 (HIV-1)

## PGT145 (antibody)
[1]
  IC50: 0.02 µg/mL
  IC80: 0.091 µg/mL
[2]
  IC50, titer in TZM.bl cells: 0.018 µg/mL
  IC80, titer in TZM.bl cells: 0.065 µg/mL
[3]
  IC50: 0.947 µg/mL
  IC80: 41.3 µg/mL
[4]
  IC50: 0.001 µg/mL
  IC80: 0.007 µg/mL
[5]
  IC50: > 50 µg/mL
  IC80: > 50 µg/mL
[6]
  IC50: > 50 µg/mL
  IC80: > 50 µg/mL
[7]
  IC50, titer in TZM.bl cells: 0.005 µg/mL
  IC80, titer in TZM.bl cells: 0.044 µg/mL
[8]
  IC50: > 50 µg/mL
  IC80: > 50 µg/mL
[9]
  IC50, titer in TZM.bl cells: 3.21 µg/mL
  IC80, titer in TZM.bl cells: 36 µg/mL
[10]
  IC50: 0.006 µg/mL
  IC80: 0.084 µg/mL
[11]
  IC50: > 50 µg/mL
  IC80: > 50 µg/mL
[12]
  IC50, titer in TZM.bl cells: 0.024 µg/mL
  IC80, titer in TZM.bl cells: 0.146 µg/mL
[13]
  IC50: > 50 µg/mL
  IC80: > 50 µg/mL
[14]
  IC50: 0.009 µg/mL
  IC80: 0.025 µg/mL
[15]
  IC50, titer in TZM.bl cells: > 50 µg/mL
  IC80, titer in TZM.bl cells: > 50 µg/mL
[16]
  IC50, titer in TZM.bl cells: 0.117 µg/mL
  IC80, titer in TZM.bl cells: 0.745 µg/mL
[17]
  IC50: < 0.001 µg/mL
  IC80: < 0.001 µg/mL
[18]
  IC50: 0.102 µg/mL
  IC80: 0.71 µg/mL
[19]
  IC50: 0.112 µg/mL
  IC80: 1.23 µg/mL
[20]
  IC50, titer in TZM.bl cells: 0.012 µg/mL
  IC80, titer in TZM.bl cells: 2.03 µg/mL
[21]
  IC50: 37.8 µg/mL
  IC80: > 50 µg/mL
[22]
  IC50: 0.093 µg/mL
  IC80: 0.248 µg/mL
[23]
  IC50: 0.23 µg/mL
  IC80: 0.938 µg/mL
[24]
  IC50: < 0.001 µg/mL
  IC80: 0.009 µg/mL
[25]
  IC50, titer in TZM.bl cells: 0.351 µg/mL
  IC80, titer in TZM.bl cells: 1.39 µg/mL
[26]
  IC50, titer in TZM.bl cells: 0.073 µg/mL
  IC80, titer in TZM.bl cells: 0.376 µg/mL
[27]
  IC50: 0.04 µg/mL
  IC80: 0.118 µg/mL
[28]
  IC50, titer in TZM.bl cells: 2.27 µg/mL
  IC80, titer in TZM.bl cells: 17.9 µg/mL
[29]
  IC50: 0.029 µg/mL
  IC80: 0.095 µg/mL
[30]
  IC50, titer in TZM.bl cells: 0.114 µg/mL
  IC80, titer in TZM.bl cells: 3.1 µg/mL
[31]
  IC50: 7.27 µg/mL
  IC80: 44.5 µg/mL
[32]
  IC50: 9.27 µg/mL
  IC80: > 50 µg/mL
[33]
  IC50, titer in TZM.bl cells: 0.08 µg/mL
  IC80, titer in TZM.bl cells: 5.09 µg/mL
[34]
  IC50, titer in TZM.bl cells: 0.043 µg/mL
  IC80, titer in TZM.bl cells: 0.164 µg/mL
[35]
  IC50: 0.025 µg/mL
  IC80: 0.68 µg/mL
[36]
  IC50: > 50 µg/mL
  IC80: > 50 µg/mL
[37]
  IC50: > 50 µg/mL
  IC80: > 50 µg/mL

## PGT151 (antibody)
[1]
  IC50: 0.004 µg/mL
  IC80: 0.017 µg/mL
[2]
  IC50, titer in TZM.bl cells: 0.007 µg/mL
  IC80, titer in TZM.bl cells: 0.036 µg/mL
[3]
  IC50: 0.007 µg/mL
  IC80: 0.023 µg/mL
[4]
  IC50: 0.007 µg/mL
  IC80: > 50 µg/mL
[5]
  IC50: 2.89 µg/mL
  IC80: > 50 µg/mL
[6]
  IC50: 0.004 µg/mL
  IC80: 0.023 µg/mL
[7]
  IC50, titer in TZM.bl cells: > 50 µg/mL
  IC80, titer in TZM.bl cells: > 50 µg/mL
[8]
  IC50: > 50 µg/mL
  IC80: > 50 µg/mL
[9]
  IC50, titer in TZM.bl cells: 38.1 µg/mL
  IC80, titer in TZM.bl cells: > 50 µg/mL
[10]
  IC50: > 50 µg/mL
  IC80: > 50 µg/mL
[11]
  IC50: > 50 µg/mL
  IC80: > 50 µg/mL
[12]
  IC50, titer in TZM.bl cells: > 50 µg/mL
  IC80, titer in TZM.bl cells: > 50 µg/mL
[13]
  IC50: 0.496 µg/mL
  IC80: 4.22 µg/mL
[14]
  IC50: > 50 µg/mL
  IC80: > 50 µg/mL
[15]
  IC50, titer in TZM.bl cells: 0.002 µg/mL
  IC80, titer in TZM.bl cells: 0.01 µg/mL
[16]
  IC50, titer in TZM.bl cells: > 50 µg/mL
  IC80, titer in TZM.bl cells: > 50 µg/mL
[17]
  IC50: 0.004 µg/mL
  IC80: 0.014 µg/mL
[18]
  IC50: > 50 µg/mL
  IC80: > 50 µg/mL
[19]
  IC50: > 50 µg/mL
  IC80: > 50 µg/mL
[20]
  IC50, titer in TZM.bl cells: 0.061 µg/mL
  IC80, titer in TZM.bl cells: > 50 µg/mL
[21]
  IC50: 0.01 µg/mL
  IC80: 0.208 µg/mL
[22]
  IC50: 0.06 µg/mL
  IC80: > 50 µg/mL
[23]
  IC50: 0.008 µg/mL
  IC80: 0.048 µg/mL
[24]
  IC50: 0.004 µg/mL
  IC80: 0.012 µg/mL
[25]
  IC50, titer in TZM.bl cells: 0.327 µg/mL
  IC80, titer in TZM.bl cells: > 50 µg/mL
[26]
  IC50, titer in TZM.bl cells: > 50 µg/mL
  IC80, titer in TZM.bl cells: > 50 µg/mL
[27]
  IC50: > 50 µg/mL
  IC80: > 50 µg/mL
[28]
  IC50, titer in TZM.bl cells: > 50 µg/mL
  IC80, titer in TZM.bl cells: > 50 µg/mL
[29]
  IC50: 0.006 µg/mL
  IC80: 0.033 µg/mL
[30]
  IC50, titer in TZM.bl cells: 0.004 µg/mL
  IC80, titer in TZM.bl cells: 0.026 µg/mL
[31]
  IC50: > 50 µg/mL
  IC80: > 50 µg/mL
[32]
  IC50: > 50 µg/mL
  IC80: > 50 µg/mL
[33]
  IC50, titer in TZM.bl cells: 0.006 µg/mL
  IC80, titer in TZM.bl cells: 0.03 µg/mL
[34]
  IC50, titer in TZM.bl cells: 0.014 µg/mL
  IC80, titer in TZM.bl cells: 0.202 µg/mL
[35]
  IC50: 0.027 µg/mL
  IC80: 5.16 µg/mL
[36]
  IC50: 0.008 µg/mL
  IC80: 0.045 µg/mL
[37]
  IC50: 0.006 µg/mL
  IC80: 0.018 µg/mL
